Data set [1] addresses T1, H-NSctd WT (Salmonella enterica serovar Typhimurium, UniProt P0A1S2 85-137). As to the kind of experiment: ITC. (In ITC the heat of successive injections is recorded.)
For data set [2], the target named is T1, H-NSctd WT. The data set is described as follows: NMR titration.
The target in data set [3] is T1, H-NSctd WT. The data set is described as follows: NMR titration. This is another data set of the same source.
The target of a further data set is H-NSctd K107A (Salmonella enterica serovar Typhimurium, UniProt P0A1S2 85-137, K107A). The data set is described as follows: NMR titration.
A further data set has as its target H-NSctd T115A (Salmonella enterica serovar Typhimurium, UniProt P0A1S2 85-137, T115A). The data set is described as follows: NMR titration.

B1: 3AT DNA (dsDNA)
DNA 1: CGCATATATGCG
DNA 2: CGCATATATGCG
A word on the Kd: it is the constant that tells how readily two partners part at equilibrium. A low value points to higher affinity. Consider B1, for which the Kd with H-NSctd WT [1] is 7.6 ± 0.5 µM; with H-NSctd WT [2], 6.3 ± 0.6 µM; in the data set with H-NSctd WT [3] it was 1.5 ± 0.5 µM; with H-NSctd K107A, 5.3 ± 1.6 µM; with H-NSctd T115A, 4.1 ± 1.2 µM.

(Values after paper PMC12162814.)
